Tests used:
[1] = target: steroid receptor coactivator 3 (SRC3), full-length, Strep II tagged (human) (UniProt Q9Y6Q9); assay: SEC-MALS
[2] = target: progesterone receptor isoform A (PR-A), full-length, Strep II tagged (human) (UniProt P06401); assay: SEC-MALS
Sequence of progesterone receptor isoform A (PR-A), full-length, Strep II tagged (human) (P06401 165-933): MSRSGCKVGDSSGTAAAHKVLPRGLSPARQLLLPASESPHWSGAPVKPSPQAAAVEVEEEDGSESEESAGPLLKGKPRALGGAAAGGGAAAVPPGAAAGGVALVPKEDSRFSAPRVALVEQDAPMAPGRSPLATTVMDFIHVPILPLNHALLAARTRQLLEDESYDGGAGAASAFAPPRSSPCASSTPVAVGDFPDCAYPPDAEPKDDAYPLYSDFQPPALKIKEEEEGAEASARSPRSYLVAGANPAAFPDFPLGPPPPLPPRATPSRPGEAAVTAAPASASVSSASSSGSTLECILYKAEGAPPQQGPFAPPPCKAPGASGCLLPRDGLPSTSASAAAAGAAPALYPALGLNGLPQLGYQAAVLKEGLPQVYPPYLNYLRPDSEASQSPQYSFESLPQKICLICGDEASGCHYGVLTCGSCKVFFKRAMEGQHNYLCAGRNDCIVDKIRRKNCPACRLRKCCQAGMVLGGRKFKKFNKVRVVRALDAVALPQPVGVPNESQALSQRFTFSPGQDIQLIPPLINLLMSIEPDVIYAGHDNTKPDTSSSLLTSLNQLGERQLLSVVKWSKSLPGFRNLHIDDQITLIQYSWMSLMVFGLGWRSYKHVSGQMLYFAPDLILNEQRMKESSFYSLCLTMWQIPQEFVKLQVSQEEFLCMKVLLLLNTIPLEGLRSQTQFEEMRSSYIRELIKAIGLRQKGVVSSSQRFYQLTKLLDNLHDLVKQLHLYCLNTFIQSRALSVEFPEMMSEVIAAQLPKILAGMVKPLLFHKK

Sequence of steroid receptor coactivator 3 (SRC3), full-length, Strep II tagged (human) (Q9Y6Q9 whole entry, canonical isoform): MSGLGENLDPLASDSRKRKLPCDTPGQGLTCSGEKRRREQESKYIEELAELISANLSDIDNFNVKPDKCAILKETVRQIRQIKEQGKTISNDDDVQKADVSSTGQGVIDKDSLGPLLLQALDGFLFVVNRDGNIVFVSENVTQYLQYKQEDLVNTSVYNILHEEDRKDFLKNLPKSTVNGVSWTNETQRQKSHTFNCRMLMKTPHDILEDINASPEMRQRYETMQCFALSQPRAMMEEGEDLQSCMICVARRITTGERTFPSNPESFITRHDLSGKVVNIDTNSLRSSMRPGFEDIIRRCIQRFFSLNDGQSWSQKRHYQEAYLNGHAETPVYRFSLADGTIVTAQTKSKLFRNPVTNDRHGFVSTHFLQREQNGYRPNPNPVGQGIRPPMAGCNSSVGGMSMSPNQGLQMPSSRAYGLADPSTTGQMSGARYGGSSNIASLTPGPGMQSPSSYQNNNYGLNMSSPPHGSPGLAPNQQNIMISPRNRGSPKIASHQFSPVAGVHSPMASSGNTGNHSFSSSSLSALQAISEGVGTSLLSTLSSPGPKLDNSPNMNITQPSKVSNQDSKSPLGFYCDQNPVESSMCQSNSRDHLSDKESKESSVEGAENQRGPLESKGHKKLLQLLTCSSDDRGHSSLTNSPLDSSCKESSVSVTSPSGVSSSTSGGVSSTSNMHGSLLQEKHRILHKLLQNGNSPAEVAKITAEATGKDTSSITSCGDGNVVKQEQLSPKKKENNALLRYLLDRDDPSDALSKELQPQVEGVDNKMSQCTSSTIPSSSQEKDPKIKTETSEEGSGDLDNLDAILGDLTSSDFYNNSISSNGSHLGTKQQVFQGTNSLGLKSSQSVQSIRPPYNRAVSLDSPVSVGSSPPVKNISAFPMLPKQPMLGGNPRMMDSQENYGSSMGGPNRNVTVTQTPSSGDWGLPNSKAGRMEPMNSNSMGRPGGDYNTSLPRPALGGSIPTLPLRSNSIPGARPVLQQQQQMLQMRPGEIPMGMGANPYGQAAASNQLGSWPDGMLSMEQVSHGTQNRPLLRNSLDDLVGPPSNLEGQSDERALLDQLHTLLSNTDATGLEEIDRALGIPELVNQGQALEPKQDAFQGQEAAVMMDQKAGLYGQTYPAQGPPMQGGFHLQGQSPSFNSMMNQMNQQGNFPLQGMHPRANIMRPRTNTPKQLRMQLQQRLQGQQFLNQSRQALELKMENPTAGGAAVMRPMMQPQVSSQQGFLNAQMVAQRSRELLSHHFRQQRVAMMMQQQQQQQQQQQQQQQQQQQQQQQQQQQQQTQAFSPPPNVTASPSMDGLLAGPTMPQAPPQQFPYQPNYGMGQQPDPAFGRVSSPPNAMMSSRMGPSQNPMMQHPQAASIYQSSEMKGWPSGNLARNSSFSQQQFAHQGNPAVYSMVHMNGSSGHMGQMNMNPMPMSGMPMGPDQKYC

stoichiometry N (p300 per SRC3) [1]: 1
stoichiometry N (p300 per PR-A) [2]: 0.5
Substance: histone acetyltransferase p300, full-length, Strep II tagged, Q09472 1-2414

Source: PMC11398526
